Measurements as given in patent publication US8088387B2, “Method of targeting specific cell populations using cell-binding agent maytansinoid conjugates linked via a non-cleavable linker, said conjugates, and methods of making said conjugates” (Immunogen Inc., priority 2003, dated 2012).

How the values were obtained:
[1] = system: P388 lymphocytic leukemia system; conditions: in vivo; cited from earlier work
[2] = system: esterase; experiment: esterase cleavage of the C-3 ester; format: in vitro ADME
Description: Some linkers can be cleaved by esterases. Again only certain esters can be cleaved by esterases present inside or outside cells. Esters are formed by the condensation of a carboxylic acid and an alcohol. Simple esters are esters produced with simple alcohols, such as aliphatic alcohols, and small cyclic and small aromatic alcohols.

[3] = system: Lewis lung carcinoma system; conditions: cited from earlier work
[4] = system: human acute lymphoblastic leukemia line C.E.M.; conditions: cited from earlier work
[5] = system: L1210 mouse leukemia system; conditions: cited from earlier work
[6] = system: L1210 cells; conditions: treatment of L1210 cells in vivo; cited from earlier work
[7] = system: LY5178 murine leukemic cell suspension; conditions: in vitro; cited from earlier work
[8] = system: human B-16 melanocarcinoma system; conditions: cited from earlier work
[9] = human, in vivo; cited from earlier work
[10] = system: L1210 murine leukemic cell suspension; conditions: in vitro; cited from earlier work
[11] = system: human nasopharyngeal carcinoma cells; conditions: cited from earlier work
[12] = system: P388 murine leukemic cell suspension; conditions: in vitro; most sensitive line; cited from earlier work
[13] = system: COLO 205 cell line; experiment: cell destroying activity, antigen-positive cells (bystander study); format: cell-based, human; conditions: COLO 205 cultured separately
Description: (§1) An additional aspect of conjugates prepared with non-cleavable linkers compared to conjugates that have cleavable disulfide linkers is the absence of activity toward antigen-negative cells when in close proximity to antigen-positive cells, termed here the bystander effect. That is, the conjugates prepared with non-cleavable linkers have minimal bystander activity. […] This minimal bystander activity of the non-cleavable conjugate, as measured in this in vitro assay, may contribute to the increased tolerability of conjugate with non-cleavable linkers observed in acute toxicity studies.

[14] = plasma clearance of conjugates; format: in vivo; conditions: plasma, conjugate, FIG. 11
Description: This is in sharp contrast to plasma clearance of conjugates prepared with relatively labile disulfide bonds such as huC242-SPP-DM1. […] The non-cleavable SMCC linkage is therefore much more resistant to maytansinoid-linker cleavage activities present in vivo than the SPP-DM1 conjugate. […] This increased exposure could have substantial impact on drug efficacy in some cases.

[15] = acute toxicity test, single intravenous dose; format: in vivo, female CD-1 mice
Protocol: Maytansinoid conjugates prepared with non-cleavable linkers such as SMCC show an unexpected increased tolerability in mice compared with conjugates prepared with cleavable disulfide linkers. An acute toxicity test with a single intravenous dose was carried out in female CD-1 mice. A comparison of the tolerability of a huC242-SMCC-DM1 conjugate (non-cleavable) with huC242 conjugates prepared with linkers containing cleavable disulfide bonds was conducted by monitoring the death of mice (FIGS. 12A and B) and signs of toxicity (FIGS. 12C and D) over a series of four escalating doses of each conjugate. The maximum tolerated dose (MTD) for the SMCC-DM1 conjugate was greater than the highest dose tested (150 mg/kg) while the MTD for the disulfide-linked conjugate SPP-DM1 was in the range of 45-90 mg/kg.

[16] = system: COLO205 cells; experiment: cell cycle arrest by flow cytometry; format: cell-based, human; conditions: 30 hours post-treatment
Protocol: Maytansinoid conjugates are thought to impart their cell destroying activity through the inhibition of microtubule polymerization. This inhibition of microtubule polymerization leads to an arrest of the cell cycle principally at G2/M. The antigen-dependent arrest of cells at G2/M by antibody-maytansinoid conjugates can be monitored by flow cytometry analysis (FIG. 13). Treatment of COLO205 cells with huC242-SPP-DM1 or huC242-SMCC-DM1 conjugate results in a complete G2/M arrest by 6-10 hours. […] The difference in the durability of the activity of these two conjugates is also reflected in percentage of dead cells at the 30 hour time point, as judged by a dye exclusion assay using trypan blue.

[17] = Pharmacokinetic Studies of huC242-SPP-DM1 and huC242-SCC-DM1 conjugates inCD-1 Mice Plasma clearance curves and Pharmacokinetic parameters
Description: Table printed on a drawing sheet, FIG. 11
Title: Pharmacokinetic Studies of huC242-SPP-DM1 and huC242-SCC-DM1 conjugates inCD-1 Mice Plasma clearance curves and Pharmacokinetic parameters
First reader's note: Rows without -DM1 (huC242-SMCC, huC242-SPP) appear to be the antibody component of the same conjugates, as in the plot legend; study in CD-1 mice.

[18] = system: Namalwa cells; experiment: cell destroying activity, antigen-negative cells (bystander study); format: cell-based
Description: as §1

[19] = in vitro clonogenic / indirect cytotoxicity assays, cell line not given; format: cell-based; conditions: for cytotoxicity in clonogenic assays in vitro: FIGS. 9, 22, 28
Description: Cell-binding agent maytansinoid conjugates of the invention can be evaluated for their ability to suppress proliferation of various cell lines in vitro. For example, cell lines such as the human colon carcinoma line COLO205, the human melanoma cell line A375, the human myeloid leukemia cell line HL60, the human breast carcinoma line SKBR3, or the human epidermoid carcinoma cell line KB can be used for the assessment of cytotoxicity of these conjugates. Cells to be evaluated can be exposed to the compounds for 24 hours and the surviving fractions of cells measured in direct assays by known methods. (See, e.g. Goldmacher et al., 135 J. Immunol. 3648-3651 (1985), and Goldmacher et al., 102 J. Cell Biol. 1312-1319 (1986).) IC50 values can then be calculated from the results of the assays.

[20] = system: COLO 205 cells; experiment: indirect FACS binding assay on COLO 205 cells; design: species or system human; conditions: higher than free huC242 antibody; COLO 205 cells
Protocol: The inventors carried out binding and cytotoxicity studies on the huC242-non-S-containing non-cleavable linker-DM1 conjugate. First, the binding affinities of huC242 antibody, huC242-SMNP-DM3, and huC242-non-S-containing non-cleavable linker-DM1 to COLO 205 cells were compared. 5×10^3 cells per well were used, with a three hour primary incubation on ice. The huC242-non-S-containing non-cleavable linker-DM1 conjugate had about a two-fold higher apparent dissociation constant than free antibody (see FIG. 23).

Molecule: COc1cc2cc(c1Cl)N(C)C(=O)C[C@H](OC(=O)[C@H](C)N(C)C(C)=O)[C@]1(C)O[C@H]1[C@H](C)[C@@H]1C[C@@](O)(NC(=O)O1)[C@H](OC)/C=C/C=C(\C)C2 [Maytansine]
- dosage range over which tumor growth was inhibited [1]: 50- to 100 fold
- cleavage of the ester at C-3 by esterases [2]: no esterase that cleaved the ester at C-3
- inhibitory activity in vivo [3]: significant inhibitory activity
- lowest inhibitory concentration [4]: 10^−7 μg/ml
- inhibitory activity in vivo [5]: significant inhibitory activity
- cells accumulating in mitosis [6]: 67%
- inhibitory doses [7]: 10^−3 to 10^−1 μg/ml
- inhibitory activity in vivo [8]: significant inhibitory activity
- clinical outcome / adverse effects [9]: not favorable due to a number of side effects
- inhibitory doses [10]: 10^−3 to 10^−1 μg/ml
- inhibition of in vitro growth [11]: active inhibitor
- inhibitory doses [12]: 10^−3 to 10^−1 μg/ml

B1: huC242-SPP-DM1: huC242 DM1 conjugate with relatively labile cleavable disulfide linker SPP (conjugate, chains of the INN, looked up)
VH: QVQLVQSGAEVKKPGETVKISCKASDYTFTYYGMNWVKQAPGQGLKWMGWIDTTTGEPTYAQKFQGRIAFSLETSASTAYLQIKSLKSEDTATYFCARRGPYNWYFDVWGQGTTVTVSS
VL: DIVMTQSPLSVPVTPGEPVSISCRSSKSLLHSNGNTYLYWFLQRPGQSPQLLIYRMSNLVSGVPDRFSGSGSGTAFTLRISRVEAEDVGVYYCLQHLEYPFTFGPGTKLELK
modifications: DM1 via SPP disulfide linker
- cell destroying activity [13]: potent cell destroying activity
- half-life for clearance [14]: 40 to 50 h
- time by which lethal toxicity was observed for all mice ([15]; at 150 mg/kg, post-treatment): ≤ 96 h
- survival / lethal toxicity ([15]; at 150 mg/kg, single intravenous dose): lethal toxicity was observed for all mice
- maximum tolerated dose (MTD) ([15]; single intravenous dose, female CD-1 mice): 45 to 90 mg/kg
- durability of cell cycle arrest [16]: escape from cell cycle arrest and reinitiate cell division
- AUC | [17]: 9205.7 µg·h/mL
- CL | [17]: 1.1 mL/h/kg
- Cmax | [17]: 191.4 µg/mL
- Vss | [17]: 0.0926 L/kg
- t1/2 | hour [17]: 49.8 h
- cell destroying activity ([18]; Namalwa cultured separately): no activity
- bystander cell destroying activity toward Namalwa cells ([18]; co-cultures of COLO 205 and Namalwa cells): dramatic cell destroying activity

B2: huC242-SIAB-DM1: huC242 conjugate of DM1 synthesized with the non-cleavable linker SIAB (conjugate, chains of the INN, looked up)
VH: B1 VH
VL: B1 VL
modifications: DM1 via SIAB linker
- cytotoxicity in clonogenic assays in vitro [19]: potent and antigen-specific cytotoxicity

B3: huC242-non-S-containing non-cleavable linker-DM1: huC242 conjugated with a maytansinoid active ester forming a non-sulfur-containing non-cleavable linker (conjugate, chains of the INN, looked up)
VH: B1 VH
VL: B1 VL
modifications: DM1 via non-sulfur non-cleavable linker
- in vitro cytotoxicity compared with huC242-SMNP-DM3 ([19]; FIG. 22): comparable to huC242-SMNP-DM3
- cytotoxicity in clonogenic assays in vitro [19]: potent and antigen-specific cytotoxicity
- IC50 ([19]; in vitro cytotoxicity, FIG. 22): 7 pM
- apparent dissociation constant relative to free antibody [20]: two
